According to patent US9346889 (MEDIAPHARMA S R L, dated 2016):
Numbering of substitutions follows the chain as printed.

B1: hMP-RM-1 #6 (antibody, human IgG1, kappa, V domains shown)
VH: DVQLVESGGGLVQPGGSLRLSCAASGFTFSTYGMSWVRQTPDKRLEWVATISHGDGYTYYPDSVKGRFTISRDNAKNTLYLQMSSLKSEDTAMYYCARHGDYDDDYYAMDYWGQGTLVTVSS
VL: DIQMTQSPSSLSASVGDRVTITCKSSQSLLNSGNQKNYLTWYQQKPGKAPKLLIYWASTRESGVPSRFSGSGSGTDFTLTISSLQPEDFATYYCQNEYTYPLTFGQGTKVEIKR
notes: Humanized IgG1/kappa, from CHO-S cells; also called humanized MP-RM-1 #6; humanized MP-RM-1#6
B2: hMP-RM-1 #10 (antibody, human IgG1, kappa, V domains shown)
VH: B1 VH with A24V, T40A, D42G, R44G, A75S, S84N, K87R, S88A, M93V
VL: B1 VL
notes: Humanized IgG1/kappa, from CHO-S cells
B3: monoclonal antibody MP-RM-1 (antibody, V domains shown)
VH: DVQLVESGGDLVKPGGSLKLSCVVSGFTFSTYGMSWVRQTPDRRLEWVATISHGDGYTYYPDSVKGRFTISRDNAKNTLHLQMSSLKSEDTAMYYCARHGDYDDDYYAMDYWGQGTSVTVS
VL: DIVMTQSPSSLTVIAGEKVTMSCKSSQSLLNSGNQKNYLTWYQQKPGQPPKLLIYWASTRESGVPDRFTGSGSGTDFTLTISSVQAEDLAVYYCQNEYTYPLTFGAGTKLELKR
notes: Murine IgG2a from hybridoma DSM ACC3018; also called DSM ACC3018
B4: cMP-RM-1 #1 (antibody, human IgG1, kappa, V domains shown)
VH: B1 VH with G10D, Q13K, R19K, A23V, A24V, K43R, Y80H, L117S, V120F
VL: B3 VL with L112I
notes: Chimeric human IgG1/kappa, from CHO-S cells; Signal peptide left out; also called chimeric variant cMP-RM-1 #1
B5: hMP-RM-1 #20 (antibody, human IgG1, kappa, V domains shown)
VH: B1 VH with G10D, Q13K, R19K, A23V, K43R, Y80H, L117T
VL: B3 VL with I14S, A15L, K18R, V19A, T69S, L89V, A106G
notes: as for B2

Experiments:
human ErbB3 receptor [1] = target: T1, human ErbB3 receptor (human, UniProt P21860 20-1342); assay: immunofluorescence on IR-8 human melanoma cells, 10 ug/ml, on ice
T1 construct: whole, on cells; also called HER-3; HER3

human ErbB3 receptor [2] = target: T1, human ErbB3 receptor; assay: immunofluorescence on IR-8 human melanoma cells
Protocol: IR-8 human melanoma cells were maintained on ice for 30 minutes in the presence of 10 µg/ml of chimeric (cMP-RM-1 #1) or humanized (hMP-RM-1 #6, hMP-RM-1 #10, hMP-RM-1 #20) MP-RM-1 antibody variants and then returned to 37° C. for 60 minutes. Cells were harvested and stained with a fluorescein-labeled goat anti-human IgG antibody and analyzed by FACS.

human ErbB3 receptor [3] = target: T1, human ErbB3 receptor; assay: hybridoma screening; reactivity with NIH/3T3 cells transfected with human ErbB3
Protocol: Four-weeks old Balb/c mice were immunized by intraperitoneal injection of live NIH/3T3 cells transfected with the human ErbB3 receptor. Seven days later, mice were given an additional intraperitoneal injection of the immunogen. After additional seven days, mice were boosted intravenously with the immunogen, and spleens were removed for cell fusion 3 days later. Somatic cell hybrids were prepared by fusion of immune splenocytes with the murine nonsecreting myeloma cell line NS-1. Hybridoma supernatants were selected on the basis of differential reactivity with LTR-ErbB3 transfected cells, but not with LTR-neo NIH/3T3. All positive hybridoma cell colonies were cloned twice by limiting dilution and further characterized.

T1 sequence (P21860 20-1342): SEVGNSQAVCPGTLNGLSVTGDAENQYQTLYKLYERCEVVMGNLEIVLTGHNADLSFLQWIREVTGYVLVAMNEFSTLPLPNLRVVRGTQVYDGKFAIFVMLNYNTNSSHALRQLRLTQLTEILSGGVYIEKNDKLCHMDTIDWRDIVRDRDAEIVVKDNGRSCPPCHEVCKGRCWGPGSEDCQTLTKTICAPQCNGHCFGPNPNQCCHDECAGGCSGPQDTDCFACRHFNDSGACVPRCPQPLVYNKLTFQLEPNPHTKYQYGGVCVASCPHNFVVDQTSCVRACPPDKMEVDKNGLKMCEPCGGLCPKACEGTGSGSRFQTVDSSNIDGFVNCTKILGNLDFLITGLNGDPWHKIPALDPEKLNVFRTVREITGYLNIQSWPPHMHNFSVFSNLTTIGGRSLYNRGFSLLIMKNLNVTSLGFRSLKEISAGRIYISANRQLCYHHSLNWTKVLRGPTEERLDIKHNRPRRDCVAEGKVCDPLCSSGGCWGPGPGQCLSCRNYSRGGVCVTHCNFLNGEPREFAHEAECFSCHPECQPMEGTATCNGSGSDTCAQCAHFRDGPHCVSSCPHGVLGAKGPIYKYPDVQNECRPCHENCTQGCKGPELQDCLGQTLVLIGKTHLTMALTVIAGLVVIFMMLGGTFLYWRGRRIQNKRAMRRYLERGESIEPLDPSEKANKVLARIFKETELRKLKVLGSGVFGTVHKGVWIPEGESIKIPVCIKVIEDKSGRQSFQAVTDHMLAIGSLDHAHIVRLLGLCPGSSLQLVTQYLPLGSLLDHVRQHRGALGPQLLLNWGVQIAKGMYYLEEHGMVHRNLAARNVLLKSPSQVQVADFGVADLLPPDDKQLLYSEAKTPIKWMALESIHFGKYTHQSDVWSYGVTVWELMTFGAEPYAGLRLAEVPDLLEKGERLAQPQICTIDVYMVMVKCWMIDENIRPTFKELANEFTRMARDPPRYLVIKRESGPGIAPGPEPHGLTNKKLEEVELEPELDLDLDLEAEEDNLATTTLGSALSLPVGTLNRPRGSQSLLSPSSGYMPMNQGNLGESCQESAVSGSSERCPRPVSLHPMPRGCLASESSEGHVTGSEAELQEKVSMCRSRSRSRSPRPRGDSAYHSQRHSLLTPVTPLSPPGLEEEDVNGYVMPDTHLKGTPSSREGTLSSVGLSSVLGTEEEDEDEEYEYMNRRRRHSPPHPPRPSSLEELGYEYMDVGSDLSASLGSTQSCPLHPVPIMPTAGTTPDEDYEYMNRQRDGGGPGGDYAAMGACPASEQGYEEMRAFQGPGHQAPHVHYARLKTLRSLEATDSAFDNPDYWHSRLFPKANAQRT

Binder | binding result (human ErbB3 receptor [2]) | also measured
B1 |  | binding result (human ErbB3 receptor [1]): binds
B2 | binds | 
B3 |  | binding result (human ErbB3 receptor [3]): binds
B4 | binds | 
B5 | binds | 
